A protein production outcome set (Wang et al. 2014)
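Note: failed if final PepcDB status was selected cloned or expressed and not failed if soluble or beyond.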

Test: label from the status in PepcDB records
With “MKIAIASGKGGTGKTTVAVNLALALEEVQLFDCDVEEPNCNLFLGFEMEPVEEVVFLVPEINPDKCTLCRGCSDFCRYNALAAIPNRILSFPSLCHGCGGCSFVCPAGAIEEKPETIGIIQKALSDSPLTFFCGTLKIGKATATPVIKSLQNHIDESRPAIIDSPPGTACPVLAVMGFADYCVLVTESTPFGFHDFCLALEAARALNVPVGVVLNRDGLGDSRVEDFCRAEGIPILLRIPNDRTIARLYSEGIPFVKEMPEWKKQFKDMFETIKTGLYESKGVQLEHHHHHH” the protein production was “failed”. With “MKIAIFGTTLHAGVMAALLAERGNDVFWCADHDYKGLEEQIVCQTYQEQDVNRLLVKQRQLGFLKDCRFSSIPLDIEAYLFCFSPTELQFALEVTQLLNIRPIIHPRLMINGSTFGLHGTEKLKQNLPKDHWVYFPDMIQEGNAINSVLTVKHVIVGVESDYTKTIMHEMLRPFFRFNHQYLFMPILDAEFTKLSISGMLATRISYMNDMALVAEKLGIDIANVKEGMAADTRIGSAYLSAGVGFGGENFSHDILTLSNVVSDTGARSRLLEQVWEINEQQKEVLFRKLWNYYHCDLKDKVVAIWGAAFKENTSNIHNAPIHSMLTALWAQGAIVKLHDPQALEEIQARYGKRNDLILCTEQYEATRGAHALCVMTVWKQYLSPDYKKLQQLMAHPFILDGRNVYDPVYIKQQGFAYEGIGRL” the protein production was “failed”. In the case of “MKIALINENSQASKNHIIYDSLKEATDKKGYQLFNYGMRGEEGESQLTYVQNGLMAAILLNTKAVDFVVTGCGTGVGAMLALNSFPGVVCGLAVDPTDAYLYSQINGGNALSIPYAKGFGWGAELTLKLMFERLFAEEMGGGYPRERVIPEQRNARILNEVKQITHNDLMTILKIIDQDFLKDTISGKYFQEYFFENCQDDEVAAYLKEVLAK”, the protein production is reported as “not failed”. With “MKIATIKTGLASLAMLPGLVMAAPAVADKADNAFMMICTALVLFMTIPGIALFYGGLIRGKNVLSMLTQVTVTFALVCILWVVYGYSLAFGEGNNFFGNINWLMLKNIELTAVMGSIYQYIHVAFQGSFACITVGLIVGALAERIRFSAVLIFVVVWLTLSYIPIAHMVWGGGLLASHGALDFAGGTVVHINAAIAGLVGAYLIGKRVGFGKEAFKPHNLPMVFTGTAILYIGWFGFNAGSAGTANEIAALAFVNTVVATAAAILGWIFGEWALRGKPSLLGACSGAIAGLVGVTPACGYIGVGGALIIGVVAGLAGLWGVTMLKRLLRVDDPCDVFGVHGVCGIVGCIMTGIFAASSLGGVGFAEGVTMGHQLLVQLESIAITIVWSGVVAFIGYKLADLTVGLRVPEEQEREGLDVNSHGENAYNA” the protein production was “failed”. In the case of “MKIAVLGTGTVGRTMAGALADLGHEVTIGTRDPKATLARAEPDAMGAPPFSQWLPEHPHVHLAAFADVAAGAELVVNATEGASSIAALTAAGAENLAGKILVDIANPLDFSHGMPPTLNPVNTDSLGEQIQRTFPEAKVVKTLNTMNASLMVDPGRAAGGDHSVFVSGNDAAAKAEVATLLKSLGHQDVIDLGDITTARGAEMLLPVWIRLWGALGTANFNFKIAR”, the protein production is reported as “not failed”. With “MKIFVDGDGSPVKETVIEVAVEKALDVVIVTSVDHYSLKDYPENVSFVYVDKGADAADFKIVQLIKKGDLLITQDYGLASLVLPKGVLVLHQLGYQYTKENIDGLLEQRYFSGQIRRKGGRTKGPKPFTDQDRTTFKQALIELVKRSLLEHHHHHH” the protein production was “failed”. With “MKIGVDAGGTLIKIVQEKNGERTYSTRLTTEIEEVIQWLNQQDCNNINLTGGQAAMINEQLNCESRVFVEFDAAAKGLEILLEEQGHFLDDYIFTNVGTGTSLHFSNGKAQKRVGGIGTGGGMIQGLGYLLTGISNYKQLTDTAQNGNRDIIDLKVKHIYKDSEPPISGDLTAANFGNVLHHLDESFTDADKLASVIAVVGEVITTMSITVAREHNTKNVAYIGSSFHNNDLLKDVVKDYTVLRGCEPYYIEHGAFSGALGSIHLLEHHHHHH” the protein production was “failed”. In the case of “MKIIFSASPANRAAAYALRQAVFVEERGISADVEFDVKDTDQCEYAVLYLQPDLPITTLRLEPQADHVMRFGRVCTRKAYRGHGWGRQLLTAAEEWATQRGFTHGEIHGELTAQRFYELCGYRVTAGPYDEDGAPVVIMHKQ”, the protein production is reported as “failed”. With “MKIIFSASPANRAAAYALRQAVFVEERGISADVEFDVKDTDQCEYAVLYLQPDLPITTLRLEPQADHVMRFGRVCTRKAYRGHGWGRQLLTAAEEWATQRGFTHGEIHGELTAQRFYELCGYRVTAGPYDEDGAPVVIMHKQLL” the protein production was “not failed”. For “MKIIRNYLYNASYQVLILLTPLITVPYVARVLGPTGVGVYSYTNSIITYFVLIGTLGITVYGNQQIAFHRDDIIERSRTFWEIELLQAVNVGITFLGFGIFLILDHRYQLFMVFQSCQLLAGAFDVSWFFMGIEDFKKTVFRNTLVKIATLGAIFIFVRTQSDLGLYILILALSQLVGNFTLWPYLKTRLVRIKFKDLKIWHHYVPALMLFVPQAANLVYQQVNKTMLGNLDTVNSVAYFDYADKLIKTVLAVVTATGIVMLPHMANLHAKGKNETIKRYLYKSFEFVSMIALPLGFGIAGIATTLAPIYFGQDFSISGKLLIIEAPVILLIGWSNVIGQQYMMPTEQISKYTKSVIIGAIVNVILNVPLIMYLGAVGAPIATVAAELSVTLYQLFVVRKQIQINLLFSDFWKYLFSSTVMFIVVYGLNVSMPMSIINLIVQIVEGMIIYLGMLLVLQPKLVVEGKSLLLGKLHK”, the protein production was “failed”. For “MKIKHWDRWLASLKDDDYLKNIEAIKLYLAVMSIYEPDLLDEYMIDDDFHPMISRLKNVTLDVTSARFKELYITESKMNYARDELDGAMIISKTLTKSDIVGNVALPKAQVMSVLTRMNGVTDEGLDNGFEVQVHDIMEDDLYTVTLKRIDDMKYYFGTGWSTMKHSLDLVEGDVQKLYWDQFENKFIVLNFQHKTMGIMIPV”, the protein production was “failed”. In the case of “MKIKILAVLAVVTVIVVSMFMREKREDPSSLVMMNVEALATGEGTSPAICVGTGSVVCPNDGSKVLYYR”, the protein production is reported as “failed”. For “MKILIDGDACPKAVLQICLKKGRQYGIPVWTVASFNHEIASDHHIVVGNAPQETDLKVVNLSEAGDIIVTQDIGLAAMVLGKGARALSPTGKEYRPESIANLLEERELKAKYRRSLEHHHHHH”, the protein production was “not failed”. In the case of “MKILLIGGSGNIGRAIAAELSGRHEIIAAGRHHGDVRVDIEDEQSIAAMYRQLPRLDAVAVATGGRNGHVGPLAEMNAERYRVGLDAKLMGQVNLVLRGLDKVADGGSFTLVGGAWQPQAIVPLLSNVYMANAALEGFVNAAAVELPRRLRINLVSPLLLAESEAEYGPLFRGVPLVEARQVARAYSLSIEGAQTGQTYRLGRLDLEHHHHHH”, the protein production is reported as “not failed”. For “MKILTQSLPNSSAAYLQGYLRENTDSSVTYPTVIIVPGGSYTHIPERQAEDLALAWVARGYQAFFLRYSFISEKTPLLPNPVIELAQSVAAIHAHATTWHVDLRRLAVAGFSVGGHITALFNDWWSEADFNQQAHTTPEQLKVQAVILGYPVISPDLGFPTDAATLATWSTTPKKIAADQHVTAANAPTFIWVTANDPLVPVQNALAYAQASLTHGVDTELHVFHNGPHGLALANSVTAWKPGTDLPHVAHWLDLATEWLQDLKLEHHHHHH”, the protein production was “not failed”. With “MKILVVSGFLGAGKTTFIRTLAERTKKDFAVMENEYGAVNVDGDLLEQTNDLNIWELTEGCICCSMQNDFATSILTIANTVDPEYLIVEPTGVGMLSKIIENIQKIEYERITLLEPLTILDGTMYDRCMFEFSEICEDQIQSAGRILVSKMEYAAENERCSLKQKLIALNPEAEICVSHYTEQGDDWWASLLTSYLDKEIPMKEERELDLENLGLTEASLQSEQELILFLQGVVSGVFGDICRAKGYLPAGNGWLRFDVTDRTYSVTGIDTMPEAKAIFIGRQLKRNWLREVLQKELYVEVSKRAIRPMRKRSEVLEHHHHHH” the protein production was “failed”. In the case of “MKIMGFYSQVILPRLLDWSLSDPTLATYRQELLTDVTGEVLEIGFGTGLNLAYYPSHIHKITTVDVNPGMNTIAQKRIDDSGIKVQQLLLSGENLPMADNTFDSVVSTWTLCSIANVEQALQEVYRVLKPGGKFFFLEHGLSNKPNVQVWQNRLTPIQKVLADGCHLNRNIQQLVEQSFDHVELKRFTPENFPDLMAHFYKGCATKKSILEHHHHHH”, the protein production is reported as “not failed”. In the case of “MKIPIILTLMLFSLGFIFGFISINNLSKINDKDLSNYIPNIQFNFPSILTNNLKVIFLMLAGSITFGLSTFINLIFNGFNVGVLIGSISLTNEPLKLITALILPHGIFEISAMLISAVAGFKIPYKVTLYLLDKKEKPLTEEDIKDFLKLSLISIILIVIAAFIEVYITPKIATYLLT”, the protein production is reported as “failed”. With “MKIQCDVCEKAPATLICCADEAALCAKCDVEVHAANKLASKHQRLFLDSLSTKFPPCDICLEKAAFIFCVEDRALLCRDCDEATHAPNTRSANHQRFLATGIRVALSSTSCNQEVEKNHFDPSNQQSLSKPPTQQPAAPSPLWATDEFFSYSDLDCSNKKEQLDLGELDWLAEMGLFGDQPDQEALPVAEVPELSFSHLAHAHSYNRPMKSNVPNKKQRLEYRYDDEEEHFLVPDLG” the protein production was “not failed”. In the case of “MKIRNDGPALAGWNVAWEMPDGQEITNSWNGRFVQTGAHVDVGNLDWNKDIPAGSNIEFGFNGSHTGRNRTPASLSVNGVKCTMAVAAPPPSPRPAACEATYQISDQWNTGFTANVRIRNDGDPLAGWKVVWDMPDGQRVTNSWNGRFTQSGSHVEVGHLDWNRDIATGSNIEFGFNGSHAGANRAPSSLSLNGVACALVTVAPSPTPAPTATPSPIPTPTPSPAPTASPSPAPTPTPAPTSSPSPTPAPTGPCQADYQVTAQWNDGFTANVKVRNNGTALDGWTVAWTMPSGQTVTGMWNGQYVQTGPQVAVTPADWNRQIASGASIEFGFNGSHSGSNAVPGVLTLNGAACATTTGGGTPTPTPVPVAPGAPAGLSATVADNAVVNLVWTAADAFAQGFRIERRTAAGVDWALVAETAAGVPSFGDGTVAMGNDYEYRVYAFNAVGNSPPATASASLPTLLKYGESQYQKQGCASCHGKDGKGGFTNKPLVHFTADQLATLTEIIRVRMPPSKPANCVSNCAAGTAKYIIEVLAAAASGGGGGGGNACAGSPPPGGRALRLLTRQEYQNTVNDLLGLSENLVHLLPEENRVDGFDNNVATNLVTSIRLEAFLTQAEALAAKAVQQNWNALLPCTQQDAACARRFVEAFGKRAYRRPLTPEEADAYAALFGQGSFREGVEATITHMLVSPNFLYRSELGEVQADGTYKLTPYETASALSYLFLGSLPDGELVSAADQNLLDTPDQRIAHASRLLSLPRSRNRVGHFVGQWLLGTSPYTLPEKDQAVYPRYDAAVRSAMSEELIGFFDHVAFESTQSFPELFTANYVVVDDTLADYYGLGRPGGSGFAPVTVSDGTRTGILTLGAVLSRYANSNESHPFKRGGFLYKRLLCRDLPLPANAGFIQAPQPDPNATTRQRFEFHSKSNTSCYGCHQYLDGPGFGFENYDGAGIFRASENGQAIDASGVLRGLETFTPTEELSFTDLPDLSRKIAASPTAAQCAARQYYRFATGRREASSDSCALDSFLQTYSANGHNLQTMLLGIVNAPGFTVRRADQ”, the protein production is reported as “failed”. In the case of “MKISAVVVTFNRKKLLLECLNALRNQTYPLDAIFIIDGPSTDGTPEALLECGYIKELPPKKGNWSWETKNVIYSPINNKPIKVYYVRLYKDVGGSGGFYEGVKRAYEEGYNWIWLMDDDAEPREDALEKLIRYMNLPGVIALAPTVIRPTGEISKPHRGILCFKKIFPMIQIPLDESKYKSNQPVQIDFVSFVGPLIKRDAIKIVGFPKKEFFIHHDDVEYSIRLRTVGKIYLIPDSVIIHKENIKKTSLIKKRFLGKTIYRIPYNKLWKTYYGTRNLTYLGRIYSKSKFKFYFKLLKRWAVSVGAIILFDDHKIKRIQFITSAYLDGLRGKFDNEKPKRILYGGKKELEHHHHHH”, the protein production is reported as “not failed”.
